Results on one substance are retold here after patent US20040005648A1, “PYK2 related products and methods” (Sugen, Inc., priority 1994, published 2004).

The test deals with Kv1.2-HA (delayed rectifier-type potassium channel Kv1.2 with HA tag) (UniProt P63142). The experiment in a line: cell-based or functional assay.

PYK2 (wild type, full length): the inhibition of outward current in Xenopus oocytes, 8 min after the addition of 100 nM PMA came out at 95%.
